No end group written: not given here.
Each binder was assayed against calmodulin (Homo sapiens, UniProt P0DP23) (assay: FCS).

Row | Binder | Kd
1 | FARLTRALTSSRGVL (also: fluorescent label, unspecified) [hEAG1 BD-N] | 45 nM
2 | LRKRIVFRKI (also: fluorescent label, unspecified) | 327 nM
3 | RRLFQRFRQQK (also: fluorescent label, unspecified) [hEAG1 BD-C2] | 223 nM
4 | LRKRIVFRKI (also: GST fusion) | > 5000 nM

— article PMC2877719 (2010)
